The target in assay [1] is T1, human Robo 4 FN-like domain 2-Fc (human, UniProt P0DOX5 222-449 = IgG part).
T1 construct: also called fibronectin-like domain 2
In words: SPR, IgG captured via anti-human Fab, domain-Fc as analyte. The procedure:
(§1) All surface plasmon resonance (SPR) experiments are performed on a Biacore T100 at 25° C. with HBS-EP as running buffer (0.01 M HEPES pH 7.4, 0.15 M NaCl, 3 mM EDTA, 0.005% Surfactant P20 (Biacore)).
(§2) For determination of the epitope of the four analyzed anti-Robo 4 antibodies, domain variants of human Robo 4 (FN-like domain 1, FN-like domain 2, Ig-like domain 1 and Ig-like domain 2) were used. Anti-Robo 4 antibodies were captured for 60 s at 50 nM on a sensorchip surface with immobilized anti-human Fab specific antibody (GE Healthcare). Domain variants of human Robo 4 were passed at a concentration range of 0.46-1000 nM with a flow of 30 μl/min through the flow cells over 90 s. The dissociation was monitored for 120 s. Bulk refractive index differences were corrected for by subtracting the response obtained on reference flow cell as described above.
Background: Surface plasmon resonance follows binding to a sensor surface in real time, without labels.

Assay [2] addresses T2, human Robo 4 Ig-like domain 1-Fc (human, UniProt P0DOX5 222-449 = IgG part).
T2 construct: also called IgG-like domain 1
The description is as above. The method, then:
as §1, §2

Assay [3] concerns the target T3, human Robo 4 Ig-like domain 2-Fc (human, UniProt P0DOX5 222-449 = IgG part).
T3 construct: also called IgG-like domain 2
The assay is described as above. The procedure:
as §1, §2

The target of assay [4] is T4, full-length human Robo 4 (on cells) (human, UniProt Q8WZ75 28-1007).
T4 construct: also called CHO-Robo 4; Robo 4 on HUVECs
T4 sequence: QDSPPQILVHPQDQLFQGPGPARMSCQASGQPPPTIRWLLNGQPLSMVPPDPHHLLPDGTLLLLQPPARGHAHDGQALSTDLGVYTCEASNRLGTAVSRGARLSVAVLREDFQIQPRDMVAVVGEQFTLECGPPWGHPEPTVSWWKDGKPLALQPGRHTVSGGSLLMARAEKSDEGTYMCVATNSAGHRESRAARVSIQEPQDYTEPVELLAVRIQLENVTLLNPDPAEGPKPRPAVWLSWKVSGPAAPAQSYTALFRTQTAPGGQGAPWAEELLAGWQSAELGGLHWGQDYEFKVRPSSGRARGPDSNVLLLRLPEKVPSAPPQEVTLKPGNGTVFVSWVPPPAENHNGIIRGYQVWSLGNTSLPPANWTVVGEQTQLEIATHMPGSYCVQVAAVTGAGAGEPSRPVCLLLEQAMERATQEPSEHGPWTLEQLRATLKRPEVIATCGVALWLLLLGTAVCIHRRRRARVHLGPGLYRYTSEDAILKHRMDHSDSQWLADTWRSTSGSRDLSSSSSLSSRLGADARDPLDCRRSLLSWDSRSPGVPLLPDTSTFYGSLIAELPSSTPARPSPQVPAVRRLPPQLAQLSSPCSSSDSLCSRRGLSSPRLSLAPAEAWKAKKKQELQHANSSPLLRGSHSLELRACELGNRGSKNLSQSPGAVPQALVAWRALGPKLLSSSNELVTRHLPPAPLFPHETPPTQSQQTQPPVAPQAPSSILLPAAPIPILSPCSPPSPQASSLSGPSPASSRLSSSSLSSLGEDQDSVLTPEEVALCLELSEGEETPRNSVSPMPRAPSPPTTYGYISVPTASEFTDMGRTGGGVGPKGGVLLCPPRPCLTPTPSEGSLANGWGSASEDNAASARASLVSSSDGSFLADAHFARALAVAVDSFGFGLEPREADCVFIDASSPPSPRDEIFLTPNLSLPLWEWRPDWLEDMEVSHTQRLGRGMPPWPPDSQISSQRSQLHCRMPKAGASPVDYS
In words: flow cytometry on CHO cells stably expressing full-length human Robo 4. The procedure: Binding of anti-Robo 4 IgGs was tested on CHO cells stably expressing full-length human Robo 4 (CHO-Robo 4). Briefly, cells were harvested, counted and checked for viability.

Assay [5] addresses T5, murine (mu) Robo 4 ECD-PreS-Avi-His (mouse).
T5 construct: also called recombinant murine Robo 4; murine Robo 4
T5 chain: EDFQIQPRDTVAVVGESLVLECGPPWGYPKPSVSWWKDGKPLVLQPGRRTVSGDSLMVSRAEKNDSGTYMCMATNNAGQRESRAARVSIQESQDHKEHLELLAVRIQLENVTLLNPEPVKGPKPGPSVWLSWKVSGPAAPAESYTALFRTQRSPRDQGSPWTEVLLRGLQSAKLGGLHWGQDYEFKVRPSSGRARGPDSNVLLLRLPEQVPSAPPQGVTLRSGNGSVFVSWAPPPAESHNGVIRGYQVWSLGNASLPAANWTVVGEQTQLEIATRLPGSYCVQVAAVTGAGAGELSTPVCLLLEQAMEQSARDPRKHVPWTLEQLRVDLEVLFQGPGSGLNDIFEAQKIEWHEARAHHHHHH
Put plainly: SPR Biacore T100, IgG captured via anti-human Fab, antigen as analyte. The method, then: as §1
Anti Robo 4 antibodies were captured for 60 s at 50 nM. Recombinant human, murine and cynomolgus Robo 4 were passed at a concentration range from 0.46-1000 nM with a flow of 30 μl/min through the flow cells over 90 s. The dissociation was monitored for 120 s. Bulk refractive index differences were corrected for by subtracting the response obtained on a reference flow cell. Here, the antigens were flown over a surface with immobilized anti-human Fab specific antibody on which HBS-EP has been injected rather than the antibodies.
Kinetic constants were derived using the Biacore T100 Evaluation Software (vAA, Biacore), to fit rate equations for 1:1 Langmuir binding by numerical integration.

B1: 01F09 anti-Robo 4 IgG (antibody, V domains shown)
VH: QIQLQESGPGLVKPSQSLSLTCSVTGYSISSGSLWTWIRQFPGNNLEWMGYISYAGGIDYNPSLTSRISITRDTSRNQFFLQLESVTTQDTATYYCATPGGYPFHFDYWGQGTMVTVSS
VL: QPVLTQSPSASASLGASVKLTCTLNSQFSTYNIGWYQQHRDKPPKYVMFVKGDGGHSKADGIPDRFSGSSSGADRYLTISNIQAEDEAIYFCGADYNNAGQYGCVFGSGTHFTVLG
notes: also called 01F09 IgG
Consider B1, for which the binding result in assay [1] and in assay [2] was “no binding (tested: 0.46-1000 nM)” in each case. This molecule also registered a Kd in assay [3] of 55.5 nM. The molecule also showed an EC50 in assay [4] of 2.5 nM.

B2: 01E06 anti-Robo 4 IgG (antibody, V domains shown)
VH: EVQLVESGGGLSQPGNSLKLSCEASGFTFRNYDMSWVRQAPGKGLEWVAYISSGGGPIYYVDAVKGRFTISRDNAKNLLFLQMNNLRSEDTAVYYCARDLADIGVFDYWGQGTMVTVSS
VL: DFKMTQSPDILSPSLGESVTITCQSSQNIYSNLAWYQQKPGEHPKLLIYTASILADGIPSRFTGSGSGTQFSLKISSLQPDDVANYYCQQYVYYRTFGPGTKLEIK
notes: also called 01E06 IgG
For B2, the binding result in assay [1] and in assay [2] was “no binding (tested: 0.46-1000 nM)” in each case. Besides, binding in assay [3] was put at a Kd of 4.9 nM. Further, in assay [4], the EC50 worked out at 1.1 nM.

B3: 01F05 anti-Robo 4 IgG (antibody, V domains shown)
VH: QVQLKQSGAELVKPGASVKISCKTSVYTFTYGYMHWVEQKPGQGLEWIGRIDPDSGNSMYNQKFQGRATLTRDKSSSTVYMELRSLTSEDSAVYYCARSMRYSGYRDYALDLWGQGTQVTVSS
VL: QLVLTQSPSASASLGASVKLTCTLSSQHSSYGITWLQQHPDKAPKYVMYLKSDGSHTKGADIPDRFSGSSSGVHRYLSISNVQPEDEAIYFCVTYDSTHVFGSGTQLTVLG
notes: also called 01F05 IgG
On to B3, for which binding in assay [1] was put at a Kd of 30.6 nM. Besides, the binding result in assay [2] and in assay [3] was “no binding (tested: 0.46-1000 nM)” in each case. The molecule also showed an EC50 in assay [4] of 6.1 nM.

B4: 7G2 anti-Robo 4 IgG (antibody, V domains shown)
VH: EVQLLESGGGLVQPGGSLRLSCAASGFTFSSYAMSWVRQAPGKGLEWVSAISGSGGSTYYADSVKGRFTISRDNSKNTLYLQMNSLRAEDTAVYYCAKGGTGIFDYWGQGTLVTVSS
VL: EIVLTQSPGTLSLSPGERATLSCRASQSVSSSYLAWYQQKPGQAPRLLIYGASSRATGIPDRFSGSGSGTDFTLTISRLEPEDFAVYYCQQGQLPPRTFGQGTKVEIK
notes: also called 7G2 IgG
B4: the binding result was “no binding (tested: 0.46-1000 nM)” in assay [1] and “no binding (tested: antigen 0.46-1000 nM)” in assay [5]. Moreover, the Kd in assay [2] is 151 nM; in assay [3], 66.7 nM. The same molecule gave an EC50 in assay [4] of 4.6 nM.

What is called Kd is the constant that tells how readily two partners part at equilibrium. High values mean weaker binding, low ones tighter binding. What is called EC50 is the concentration needed to bring the measured effect to its halfway point. Read a low EC50 as an effect from little substance.

These data come from patent publication US20180282410A1 (Hoffmann-La Roche, published 2018).
